*1 amine or outer side, *2 acyl side, *3 side chain or, on linkers, in order; H or OH if unused. Primed or numbered codes have the meaning given here. [ ]: non-standard residue; d: D form. The star is where a group is joined. Tyr(OMe)(3) = Tyr, methoxy (Y(OMe)), COc1ccc(C[C@H](N[*:1])C(=O)[*:2])cc1; WPEG40K = not defined here; Orn = NCCC[C@H](N)C(=O)O; Abu = CC[C@H](N)C(=O)O; Hexanoyl = CCCCCC(=O)*; Aib = CC(C)(N)C(=O)O
How the values were obtained:
Human VPAC1 Receptor = target: T1, Human VPAC1 Receptor (Homo sapiens, UniProt P32241); test: Filter binding assay, 125I-labeled VIP, membranes of cells transiently transfected with human VPAC1; conditions: 125I-labeled VIP tracer
T1 construct: expressed in transfected cells
T1 sequence (P32241 31-457): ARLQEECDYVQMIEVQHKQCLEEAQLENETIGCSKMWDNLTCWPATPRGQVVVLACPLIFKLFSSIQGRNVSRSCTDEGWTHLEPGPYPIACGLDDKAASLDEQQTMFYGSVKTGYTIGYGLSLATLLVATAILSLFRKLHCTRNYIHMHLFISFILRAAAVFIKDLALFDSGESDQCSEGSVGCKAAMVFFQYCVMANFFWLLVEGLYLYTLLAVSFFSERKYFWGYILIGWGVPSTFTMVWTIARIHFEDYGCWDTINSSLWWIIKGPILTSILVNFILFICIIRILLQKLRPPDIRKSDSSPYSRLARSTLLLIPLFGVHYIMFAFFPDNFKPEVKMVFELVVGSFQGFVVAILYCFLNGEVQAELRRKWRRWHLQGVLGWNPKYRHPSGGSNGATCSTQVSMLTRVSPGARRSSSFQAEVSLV
Experimental: For this assay, the solutions and equipment include:
Presoak solution: 0.5% Polyethyleneamine in Aqua dest
Buffer for flushing filter plates: 25 mM HEPES pH 7.4
Blocking buffer: 25 mM HEPES pH 7.4; 0.2% protease free BSA
Assay buffer: 25 mM HEPES pH 7.4; 0.5% protease free BSA
Dilution and assay plate: PS-Microplate, U form
Filtration Plate Multiscreen FB Opaque Plate; […] Type B Glasfiber filter
In order to prepare the filter plates, the presoak solution is aspirated by vacuum filtration. The plates are flushed twice with 200 μL flush buffer. 200 μL blocking buffer is added to the filter plate. The filter plate is then incubated with 200 μL presoak solution for 1 hour at room temperature.
The assay plate is filled with 25 μL assay buffer, 25 μL membranes (2.5 μg) suspended in assay buffer, 25 μL agonist in assay buffer, and 25 μL tracer (about 40000 cpm) in assay buffer. The filled plate is incubated for 1 hour with shaking.
The transfer from assay plate to filter plate is conducted. The blocking buffer is aspirated by vacuum filtration and washed two times with flush buffer. 90 μL is transferred from the assay plate to the filter plate. The 90 μL transferred from assay plate is aspirated and washed three times with 200 μL flush buffer. The plastic support is removed. It is dried for 1 hour at 60° C. 30 μL Microscint is added. The count is performed.

[1] = Rat serum stability study (DiscoveRx cAMP read-out on CHO-VPAC2 cells); conditions: EC50, 4° C./EC50, 37° C., values >100% may represent release of intact peptide from the PEG conjugate; for 24 h stab (%): 24 h in rat serum at 37° C.; for 72 h stab (%): 72 h in rat serum at 37° C.
Experimental: In order to determine the stability of VPAC2 receptor peptide agonists in rat serum, CHO-VPAC2 cells clone #6 (96 well plates/50,000 cells/well and 1 day culture), PBS 1× (Gibco), the peptides for the analysis in a 100 μM stock solution, rat serum from a sacrificed normal Wistar rat, aprotinin, and a DiscoveRx assay kit are obtained. The rat serum is stored at 4° C. until use and is used within two weeks.
The aliquot is stored with aprotinin at 4° C. The aliquot is stored without aprotinin at 37° C. The aliquots are incubated for 24 or 72 hours.
On Day 1, after incubation of the aliquots prepared on day 0 for 24 or 72 hours, an incubation buffer containing PBS+1.3 mM CaCl2, 1.2 mM MgCl2, 2 mM glucose, and 0.25 mM IBMX is prepared. A plate with 11 serial 5× dilutions of peptide for the 4° C. and 37° C. aliquot is prepared for each peptide studied. […] The plate(s) are washed with cells twice in incubation buffer. The plates are allowed to hold 50 μL incubation media per well for 15 minutes. 50 μL solution per well is transferred to the cells from the plate prepared with 11 serial 5× dilutions of peptide for the 4° C. and 37° C. aliquot for each peptide studied, using the maximal concentrations that are indicated by the primary screen, in duplicate. This step dilutes the peptide concentration by a factor of two. The cells are incubated at room temperature for 30 minutes. The supernatant is removed. 40 μL/well of the DiscoveRx antibody/extraction buffer is added. The cells are incubated on the shaker (300 rpm) for 1 hour. Normal procedure with the DiscoveRx kit is followed. cAMP standards are included in column 12. EC50 values are determined from the cAMP assay data.

[2] = Pharmacokinetic profiles of PEGylated peptides in Fisher 344 rats; assay type: in vivo, rat; conditions: 100 μg agonist/kg, plasma RIA, mean N = 3
Experimental: Pharmacokinetic profiles of PEGylated peptides. Healthy Fisher 344 rats (3 animals per group) were injected with 100 μg agonist/kg (agonist amount based on peptide content and dissolved in PBS buffer). Blood samples were drawn 3, 12, 24, 48, 72, 96 and 168 hour post dosing and the peptide content in plasma was analysed by a radio-immunoassay (RIA) directed against the N-terminus of the peptide. PK parameters were then calculated using a model-independent method (WinNonlin Pro, Pharsight Corp., Mountain View, Calif., USA).

## C6-HSDAVFTEQY(OMe)TOrnLRAibQVAAAibK(CO(CH2)2SPEG20K)YLQSIOrnOrnGGPSSGAPPPS-NH2 (HSDAVFTEQYTXLRXQVAAXXYLQSIXXGGPSSGAPPPS; C6 acyl; PEG20K; non-natural residues; amide; Synthetic sequence PEGylated VPAC2 receptor peptide agonist) [Agonist P473]
Human VPAC1 Receptor
  IC50: > 25000 nM
[1]
  24 h stab (%): 86%

## C6-HSDAVFTEQY(OMe)TOrnLRK(WPEG40K)QVAAAibOrnYLQSIOrnOrnGGPSSGAPPPS-NH2 (HSDAVFTEQYTXLRXQVAAXXYLQSIXXGGPSSGAPPPS; C6 acyl, PEG40K on Lys, C-terminal amide; Synthetic sequence PEGylated VPAC2 receptor agonist) [Agonist P529]
[1]
  72 h stab (%): 119%

## C6-HSDAVFTEQY(OMe)TOrnLRAibQVAK(CO(CH2)2SPEG20K)AibOrnYLQSIOrnOrnGGPSSGAPPPC(PEG20K)-NH2 (HSDAVFTEQYTXLRXQVAXXXYLQSIXXGGPSSGAPPPC; C6 acyl, two PEG20K, C-terminal amide; Synthetic sequence PEGylated VPAC2 receptor agonist) [Agonist P492]
[1]
  24 h stab (%): 131%

## C6-HSDAVFTEQY(OMe)TOrnLRAibQLAAbuAibOrnYAibQSIOrnOrnGGPSSGAPPPC(PEG20K)C(PEG20K)-NH2 (HSDAVFTEQYTXLRXQLAXXXYXQSIXXGGPSSGAPPPCC; C6 acyl, two PEG20K, C-terminal amide; Synthetic sequence PEGylated VPAC2 receptor agonist) [Agonist P521]
[1]
  72 h stab (%): 294%
[2]
  AUC0-last: 7633 ng·h/mL
  Cl/F: 0.217 mL/min/kg
  Cmax: 233 ng/mL
  Tmax: 12 h
  T½: 19 h

## C6-HSDAVFTEQY(OMe)TOrnLRAibQVAAAibOrnYLQSC(PEG20K)OrnOrnGGPSSGAPPPC(PEG20K)-NH2 (HSDAVFTEQYTXLRXQVAAXXYLQSCXXGGPSSGAPPPC; C6 acyl, two PEG20K, C-terminal amide; Synthetic sequence PEGylated VPAC2 receptor agonist) [Agonist P503]
[1]
  24 h stab (%): 174%

## C6-HSDAVFTEQY(OMe)TOrnLRAibQLAAbuAibOrnYLQSIOrnOrnGGPSSGAPPPC(PEG20K)C(PEG20K)-NH2 (HSDAVFTEQYTXLRXQLAXXXYLQSIXXGGPSSGAPPPCC; C6 acyl, two PEG20K, C-terminal amide; Synthetic sequence PEGylated VPAC2 receptor agonist) [Agonist P523]
[1]
  72 h stab (%): 281%

## C6-HSDAVFTEQY(OMe)TOrnLRAibQVC(PEG40K)AAibOrnyLQSIOrnOrnGGPSSGAPPPS-NH2 [Agonist P478]
[1]
  24 h stab (%): 34%

## C6-HSDAVFTEQY(OMe)TOrnLRAibQLAAbuAibOrnYLQSIOrnC(PEG40K)OrnGGPSSGAPPPS-NH2 (HSDAVFTEQYTXLRXQLAXXXYLQSIXCXGGPSSGAPPPS; C6 acyl, PEG40K on Cys, C-terminal amide; Synthetic sequence PEGylated VPAC2 receptor agonist) [Agonist P539]
[1]
  24 h stab (%): 123%
[2]
  AUC0-last: 4013 ng·h/mL
  Cl/F: 0.417 mL/min/kg
  Cmax: 102 ng/mL
  Tmax: 24 h
  T½: 15 h

## C6-HSDAVFTEQY(OMe)TOrnLRAibQLAAAibOrnYLQSIOrnOrnC(PEG40K)GGPSSGAPPPS-NH2 (HSDAVFTEQYTXLRXQLAAXXYLQSIXXCGGPSSGAPPPS; C6 acyl, PEG40K on Cys, C-terminal amide; Synthetic sequence PEGylated VPAC2 receptor agonist) [Agonist P560]
[1]
  24 h stab (%): 192%

## C6-HSDAVFTEQY(OMe)TOrnLRAibQVAAK(CO(CH2)2SPEG40K)OrnYLQSIOrnOrnGGPSSGAPPPS-NH2 (HSDAVFTEQYTXLRXQVAAXXYLQSIXXGGPSSGAPPPS; N-terminal C6 acyl, PEG40K on Lys, C-terminal amide; Synthetic sequence PEGylated VPAC2 receptor agonist) [Agonist P475]
[1]
  24 h stab (%): 61%

## C6-HSDAVFTEQY(OMe)TOrnLRAibQLAAbuAibOrnYLQSIOrnOrnC(PEG4OK)GGPSSGAPPPS-NH2 (HSDAVFTEQYTXLRXQLAXXXYLQSIXXCGGPSSGAPPPS; C6 acyl, PEG40K on Cys, C-terminal amide; Synthetic sequence PEGylated VPAC2 receptor agonist) [Agonist P566]
[1]
  24 h stab (%): 152%

## C6-HSDAVFTEQY(OMe)TOrnLRK(WPEG40K)QLAAbuAibOrnYLQAibIOrnOrnGGPSSGAPPPS-NH2 (Hexanoyl-HSDAVFTEQ[Tyr(OMe)(3)]T[Orn]LRK(WPEG40K)QLA[Abu][Aib][Orn]YLQ[Aib]I[Orn][Orn]GGPSSGAPPPS-NH2; reading uncertain) [Agonist P557]
[1]
  24 h stab (%): 131%

## C6-HSDAVFTEQY(OMe)TOrnLRK(CO(CH2)2SPEG40K)QVAAAibOrnYLQSIOrnOrnGGPSSGAPPPS-NH2 (HSDAVFTEQYTXLRXQVAAXXYLQSIXXGGPSSGAPPPS; N-terminal C6 acyl, PEG40K on Lys, C-terminal amide; Synthetic sequence PEGylated VPAC2 receptor agonist) [Agonist P485]
[1]
  24 h stab (%): 65%

## C6-HSDAVFTEQY(OMe)TRAibRAibQLAAAibOrnY(OMe)LQSIKAibOrnGGPSSGAPPPC(PEG40K)-NH2 (HSDAVFTEQYTRXRXQLAAXXYLQSIKXXGGPSSGAPPPC; C6 acyl; PEG40K; non-natural residues; amide; Synthetic sequence PEGylated VPAC2 receptor peptide agonist) [Agonist P417]
Human VPAC1 Receptor
  IC50: > 25000 nM
[1]
  24 h stab (%): 265%

## C6-HSDAVFTEQY(OMe)TOrnLRAibQLAAbuAibOrnYLQSC(PEG40K)OrnOrnGGPSSGAPPPS-NH2 (HSDAVFTEQYTXLRXQLAXXXYLQSCXXGGPSSGAPPPS; C6 acyl, PEG40K on Cys, C-terminal amide; Synthetic sequence PEGylated VPAC2 receptor agonist) [Agonist P543]
[1]
  24 h stab (%): 119%

## C6-HSDAVFTEQY(OMe)TOrnLRC(PEG40K)QVAAAibOrnYLQSIOrnOrnGGPSSGAPPPS-NH2 (HSDAVFTEQYTXLRCQVAAXXYLQSIXXGGPSSGAPPPS; N-terminal C6 acyl, PEG40K on Cys, C-terminal amide; Synthetic sequence PEGylated VPAC2 receptor agonist) [Agonist P483]
Human VPAC1 Receptor
  IC50: > 25000 nM
[1]
  24 h stab (%): 22%
